Experimental data taken from paper PMC5636754, “Structural and biochemical characterization of DAXX-ATRX interaction” (Protein & Cell, 2017).

T1: DAXX interaction domain of ATRX (DID_(ATRX)), aa 1,189-1,326 (human, UniProt P46100 1189-1326)
T1 construct: also called full length DID_(ATRX); ATRX_(1,189–1,326)
T1 sequence (looked up): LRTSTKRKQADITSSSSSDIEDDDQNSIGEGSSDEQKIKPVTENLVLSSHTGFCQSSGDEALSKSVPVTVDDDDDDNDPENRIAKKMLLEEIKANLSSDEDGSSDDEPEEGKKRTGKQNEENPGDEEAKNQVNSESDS

T2: DAXX helical bundle (DHB) domain of death domain-associated protein (DAXX), aa 55-144 (UniProt Q9UER7 55-144)
T2 chain: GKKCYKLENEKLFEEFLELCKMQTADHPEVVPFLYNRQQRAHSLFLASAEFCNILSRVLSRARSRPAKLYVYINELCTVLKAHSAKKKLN

B1: DAXX helical bundle (DHB) domain of death domain-associated protein (DAXX), aa 55-144 (domain or fragment, UniProt Q9UER7 55-144, looked up)
chain: T2 chain
notes: Death domain-associated protein (DAXX), DHB domain, residues 55-144; they may stand in the supplementary file; also called DHB_(DAXX); DBH_(DAXX)
B2: ATRX_(1,244–1,285), 42-residue loop-helix segment of DID_(ATRX) (domain or fragment, human, UniProt P46100 1244-1285, looked up)
chain: SSGDEALSKSVPVTVDDDDDDNDPENRIAKKMLLEEIKANLS
notes: source: co-expressed with DHB_(DAXX) and purified for the crystal
B3: ATRX_(1,265–1,285), α-helix frame only (αDID), wild type peptide (peptide, UniProt P46100 1265-1285, looked up)
peptide: NDPENRIAKKMLLEEIKANLS
notes: the wild type is called 'wild type peptide control'; also called WT
B4: ATRX_(1,259–1,285), minimum ATRX motif of 27 residues (peptide, UniProt P46100 1259-1285, looked up)
peptide: DDDDDDNDPENRIAKKMLLEEIKANLS
notes: begins with the polyD loop 1259-DDDDDD-1264

Biological target: T1, DAXX interaction domain of ATRX …
Test: ITC; DHB_(DAXX) titrated with ATRX fragments or peptides
Conditions: both partners purified

Binder | Kd [µM]
B1 | 4.5

Biological target: B1
Test: as above
Conditions: both partners purified

Binder | Kd [nM] | binding result
B2 | 70 | 
B3 | 1000 | 
NDPENRIAKKMLAEEIKANLS (peptide, UniProt P46100 1265-1285, looked up, source: synthetic peptide) [ATRX_(1,265–1,285) L1277A mutant peptide] | 80600 | 
NDPENRIAAKMLLEEIKANLS (peptide, UniProt P46100 1265-1285, looked up, source: synthetic peptide) [ATRX_(1,265–1,285) K1273A mutant peptide] |  | binds
NNPENRIAKKMLLEEIKANLS (peptide, UniProt P46100 1265-1285, looked up, source: synthetic peptide) [ATRX_(1,265–1,285) D1266N mutant peptide] |  | binds
NDPENRIAKKMLLEQIKANLS (peptide, UniProt P46100 1265-1285, looked up, source: synthetic peptide) [ATRX_(1,265–1,285) E1279Q mutant peptide] |  | binds
NDPENRIAKKMLLEEAKANLS (peptide, UniProt P46100 1265-1285, looked up, source: synthetic peptide) [ATRX_(1,265–1,285) I1280A mutant peptide] | 10900 | 
NDPQNRIAKKMLLEEIKANLS (peptide, UniProt P46100 1265-1285, looked up, source: synthetic peptide) [ATRX_(1,265–1,285) E1268Q mutant peptide] |  | binds
B4 | 70 | 

Biological target: T2, DAXX helical bundle (DHB) domain of …
Test: ITC
Conditions: not given

Binder | Kd [µM]
NDPENRIAAKMLLEEIKANLS (peptide, UniProt P46100 1265-1285, looked up, source: synthetic peptide) [ATRX_(1,265–1,285) K1273A mutant peptide] | 2.3
NNPENRIAKKMLLEEIKANLS (peptide, UniProt P46100 1265-1285, looked up, source: synthetic peptide) [ATRX_(1,265–1,285) D1266N mutant peptide] | 7
NDPENRIAKKMLLEQIKANLS (peptide, UniProt P46100 1265-1285, looked up, source: synthetic peptide) [ATRX_(1,265–1,285) E1279Q mutant peptide] | 3.2
NDPQNRIAKKMLLEEIKANLS (peptide, UniProt P46100 1265-1285, looked up, source: synthetic peptide) [ATRX_(1,265–1,285) E1268Q mutant peptide] | 5.6
